According to PMC9233197, “Neuropeptide signalling shapes feeding and reproductive behaviours in male Caenorhabditis elegans” (Life Science Alliance, 2022):
No end group written: not given here.

Biological target: T1, NPR-22 (Caenorhabditis elegans, UniProt Q59E83)
T1 construct: host or cells: CHO-K1 cells (CHO/mtAEQ/Gα16) transiently transfected with NPR-22 cDNA in pcDNA3.1 TOPO
T1 sequence (Q59E83 1-434): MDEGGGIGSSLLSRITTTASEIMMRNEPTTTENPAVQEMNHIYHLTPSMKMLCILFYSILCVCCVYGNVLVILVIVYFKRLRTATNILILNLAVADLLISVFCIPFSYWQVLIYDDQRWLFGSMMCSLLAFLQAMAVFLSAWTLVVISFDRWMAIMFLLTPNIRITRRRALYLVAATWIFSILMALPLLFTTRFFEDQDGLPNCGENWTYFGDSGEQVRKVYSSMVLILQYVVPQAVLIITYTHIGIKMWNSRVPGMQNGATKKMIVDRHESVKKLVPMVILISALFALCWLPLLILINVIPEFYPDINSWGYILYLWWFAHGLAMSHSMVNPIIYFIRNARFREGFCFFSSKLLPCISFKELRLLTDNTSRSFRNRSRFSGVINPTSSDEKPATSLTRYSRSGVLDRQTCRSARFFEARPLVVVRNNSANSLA
Experiment: In vitro GPCR activation assay (aequorin bioluminescence, CHO/mtAEQ/Gα16 cells transfected with NPR-22)
Type: cell-based
Conditions: dose–response, n = 6–8 trials
Source text: Figure 1. Neuropeptide lury-1 and its receptor npr-22 are expressed in different cells in the two sexes of C. elegans. […] In males, there is additional expression in cells in the tail (white arrows). Dashed outlines indicate worm body and position of pharyngeal bulbs in the head. Scale bar = 10 μm. (B) Identification of lury-1–expressing male tail neurons using NeuroPAL ([Tekieli et al, 2021]; [Yemini et al, 2021]). The lury-1 reporter line used here is JN2443 (Plury-1::Venus, unc-122p::mCherry). […] DX1–DX3 are annotated in the image. Nuclear fluorescence in other neurons is in pseudocolour as in [Yemini et al (2021)]. Scale bar = 10 μm. […] The corresponding EC50 values (M) for each peptide are as indicated. Line represents non-linear regression fit of a variable slope line using three parameters. n = 6–8 trials. […] Expression in male copulatory apparatus is also observed. Dashed outlines indicate worm body and position of pharyngeal bulbs in the head. Scale bar = 10 μm. […]
Cell-based activation assays were performed as described ([Beets et al, 2012]). […] Cells (25,000 cells/well) were exposed to synthetic peptides in BSA medium, and aequorin bioluminescence was recorded for 30 s on a MicroBeta LumiJet luminometer (PerkinElmer) in quadruplicate. […] EC50 values were calculated from dose–response curves, constructed using a nonlinear regression analysis, with sigmoidal dose–response equation (Prism 9.0).

activation of the receptor NPR-22 in vitro (in words) | Substance
activate the receptor NPR-22 in vitro | LURY-1-1: peptide encoded by the LURY-1 precursor (luqin RYamide) of C. elegans; synthetic peptide in the assay (PALLSRY; ends and bridges not checked; UniProt Q9XW71 29-35, looked up)
activate the receptor NPR-22 in vitro | LURY-1-2: peptide encoded by the LURY-1 precursor (luqin RYamide) of C. elegans; synthetic peptide in the assay (AVLPRY; ends and bridges not checked; UniProt Q9XW71 38-43, looked up)
